The results in this text go back to PMC5941315.

The data set addresses MMP9 full length (UniProt P14780 20-707). Description: fluorescence polarization.

Sequence of MMP9 full length (P14780 20-707): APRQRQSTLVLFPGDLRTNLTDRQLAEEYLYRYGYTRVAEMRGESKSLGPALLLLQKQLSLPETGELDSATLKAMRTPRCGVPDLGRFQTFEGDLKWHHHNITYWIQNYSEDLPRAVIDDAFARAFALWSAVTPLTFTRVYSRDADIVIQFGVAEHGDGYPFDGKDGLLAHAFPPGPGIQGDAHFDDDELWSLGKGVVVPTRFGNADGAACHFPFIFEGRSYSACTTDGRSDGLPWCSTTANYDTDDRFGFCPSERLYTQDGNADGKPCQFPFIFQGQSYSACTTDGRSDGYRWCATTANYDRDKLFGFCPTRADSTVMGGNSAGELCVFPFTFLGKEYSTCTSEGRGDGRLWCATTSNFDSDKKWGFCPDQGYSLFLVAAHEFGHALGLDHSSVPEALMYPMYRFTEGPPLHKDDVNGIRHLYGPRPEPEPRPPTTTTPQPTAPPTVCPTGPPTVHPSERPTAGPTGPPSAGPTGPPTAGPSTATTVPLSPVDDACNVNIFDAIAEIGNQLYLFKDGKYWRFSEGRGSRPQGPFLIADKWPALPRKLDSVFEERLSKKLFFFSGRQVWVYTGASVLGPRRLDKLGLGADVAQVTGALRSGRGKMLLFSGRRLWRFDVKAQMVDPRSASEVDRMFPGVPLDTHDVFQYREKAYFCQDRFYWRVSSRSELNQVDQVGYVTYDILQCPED

For ACGCCAATAACGCTATTCGAGCTCGAGACGGCGCGATCTC (ssDNA) [Scrambled 40-mer], the binding result is recorded as “binds”.
